This assay has as its target T1, CD27-Z CLEAR (UniProt P26842 20-260; P20963 52-163).
T1 construct: also called CD27 CLEAR
Briefly: flow cytometry, T cells co-electroporated with CD27-Z RNA and bi-specific antibody RNA, stained with anti-mouse IgG Fab (streptavidin APC) and anti-CD27 FITC; controls: CD27Z alone Q2 2.52 and Q3 9.39, NO EP Q2 0.089 and Q3 1.92. A general note: A flow cytometer gives signals particle by particle.

T1 sequence (P26842 other isoform, or with tags, fused parts or gaps): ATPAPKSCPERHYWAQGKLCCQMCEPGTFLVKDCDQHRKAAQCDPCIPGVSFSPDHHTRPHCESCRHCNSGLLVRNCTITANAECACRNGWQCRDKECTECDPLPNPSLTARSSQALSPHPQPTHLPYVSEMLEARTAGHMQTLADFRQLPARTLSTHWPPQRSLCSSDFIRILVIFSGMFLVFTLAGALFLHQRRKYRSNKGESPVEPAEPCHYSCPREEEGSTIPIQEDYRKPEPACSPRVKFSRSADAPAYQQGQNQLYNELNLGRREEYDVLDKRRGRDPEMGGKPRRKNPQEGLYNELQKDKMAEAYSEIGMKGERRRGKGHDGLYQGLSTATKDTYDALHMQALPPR

B1: M709.CD19 bi-specific antibody (bispecific antibody)
chain: DIVMTQSPDSLAVSLGERATINCKASQSVDYAGESFMNWYQQKPGQPPKLLIYAASNLESGVPDRFSGSGSGTDFTLTISSLQAEDVAVYYCQQSNEDPYTFGQGTKLEIKGGGGSGGGGSGGGGSEVQLVQSGAEVKKPGESLKISCKGSGYAFSSSWMNWVRQMPGKGLEWMGRIYAGDADTAYSPSFQGQVTISADKSISTAYLQWSSLKASDTAMYYCARSDYYGDYGFAYWGQGTLVTVSSGGGGSDIQMTQTTSSLSASLGDRVTISCRASQDISKYLNWYQQKPDGTVKLLIYHTSRLHSGVPSRFSGSGSGTDYSLTISNLEQEDIATYFCQQGNTLPYTFGGGTKLEITGGGGSGGGGSGGGGSEVKLQESGPGLVAPSQSLSVTCTVSGVSLPDYGVSWIRQPPRKGLEWLGVIWGSETTYYNSALKSRLTIIKDNSKSQVFLKMNSLQTDDTAIYYCAKHYYYGGSYAMDYWGQGTSVTVSS
notes: anti-CD27 (M709) x anti-CD19; also called aCD27-aCD19
In the case of B1, the “percent of cells CD27+ mIgG Fab+ (Q2)” value amounted to 0.35 and the “percent of cells CD27- mIgG Fab+ (Q3)” value came out at 52.2.

B2: C2177.CD19 bi-specific antibody (bispecific antibody)
chain: DIVLTQSPASLAVSLGQRATISCKASQSVDYAGDSYMNWYQQKPGQPPKLLIYAASNLESGIPARFSGSGSGTDFTLNIHPVEEEDAATYYCQQSNEDPYTFGGGTKLEIKGGGGSGGGGSGGGGSQVQLQQSGPELVKPGASVKISCKASGYAFSSSWMNWVKQRPGKGLEWIGRIYPGDGDTNYNGKFKGKATLTADKSSSTAYMQLSSLTSEDSAVYFCARSDYYGDYGFAYWGQGTLVTVSAGGGGSDIQMTQTTSSLSASLGDRVTISCRASQDISKYLNWYQQKPDGTVKLLIYHTSRLHSGVPSRFSGSGSGTDYSLTISNLEQEDIATYFCQQGNTLPYTFGGGTKLEITGGGGSGGGGSGGGGSEVKLQESGPGLVAPSQSLSVTCTVSGVSLPDYGVSWIRQPPRKGLEWLGVIWGSETTYYNSALKSRLTIIKDNSKSQVFLKMNSLQTDDTAIYYCAKHYYYGGSYAMDYWGQGTSVTVSS
notes: anti-CD27 (C2177) x anti-CD19; also called aCD27-aCD19
Turning to B2, the “percent of cells CD27+ mIgG Fab+ (Q2)” value came out at 13.8 and the “percent of cells CD27- mIgG Fab+ (Q3)” value is 84.2.

B3: M708.CD19 bi-specific antibody (bispecific antibody)
chain: DIQMTQSPSSLSASVGDRVTITCRASKSVSTSGYSFMHWYQQKPGKAPKLLIYVGSRLDYGVPSRFSGSGSGTDFTLTISSLQPEDFATYYCQHSRELPWTFGQGTKVEIKGGGGSGGGGSGGGGSEVQLLESGGGLVQPGGSLRLSCAASGFTFSSYTMSWVRQAPGKGLEWVSVIDHGGGSTHYPDSVKGRFTISRDNSKNTLYLQMNSLRAEDTAVYYCARHRGNPFDYWGQGTLVTVSSGGGGSDIQMTQTTSSLSASLGDRVTISCRASQDISKYLNWYQQKPDGTVKLLIYHTSRLHSGVPSRFSGSGSGTDYSLTISNLEQEDIATYFCQQGNTLPYTFGGGTKLEITGGGGSGGGGSGGGGSEVKLQESGPGLVAPSQSLSVTCTVSGVSLPDYGVSWIRQPPRKGLEWLGVIWGSETTYYNSALKSRLTIIKDNSKSQVFLKMNSLQTDDTAIYYCAKHYYYGGSYAMDYWGQGTSVTVSS
notes: anti-CD27 (M708) x anti-CD19; also called aCD27-aCD19
As for B3, the “percent of cells CD27+ mIgG Fab+ (Q2)” value came to 7.58 and the “percent of cells CD27- mIgG Fab+ (Q3)” value amounted to 18.8.

These data come from patent publication US20170258835A1 (University of Pennsylvania, published 2017).
